Experimental data published in the supplement of paper PMC10126150.
± gives the standard deviation of the averaged measurements.

Tested on: ATP
Test: switch fluorescence ratio, 500 uM ATP over buffer (Cy3 cluster intensity, sum of 5 cycles each) (fold (ratio)); higher = stronger signal-on switching upon ATP binding; sequences stand for … in TCGTCGGCAGCGTCAGATGTGTATAAGAGACAGTTTTTTTTTTTTTTTTTTTTTTTTT…TC
Details: aptamer strand: ATP DNA aptamer (quencher-CACCTGGGGGAGTATTGCGGAGGAAGG + anchor), 100 nM annealed; ATP concentration: 500 uM
How it was run: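 Five buffer/ATP imaging cycles were run on Cy3-labelled switching-strand clusters on a modified Illumina MiSeq flow-cell, with NaOH stripping and re-annealing between cycles. In each cycle, clusters annealed to 100 nM quencher-labelled ATP aptamer were imaged in selection buffer, then after 15 min with 500 uM ATP at 22 °C. Per cluster, the fluorescence ratio is summed target-cycle over summed buffer-cycle Cy3 intensity, averaged per switch-domain sequence. Only clusters within 100-1000 RFU were kept.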
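Also: ATP exposure 15 min at 22 °C before imaging.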

Sequence	switch fluorescence ratio
TCGCAAAGGT	1.34 ± 0.036
TCGCACGTAT	1.03 ± 0.043
TCGCCAATTG	1.0649 ± 0.00052
TCGCCTGGCG	0.972 ± 0.034
TCGCGGCAAT	3.06 ± 2.3
TCGCGGGAAG	1.015 ± 0.0054
TCGCTAATTG	1.04 ± 0.022
TCGCTACCGA	1.09 ± 0.04
TCGCTAGATG	1.4 ± 0.52
TCGCTGTTGT	1.01 ± 0.0019
TCGCTTGGCC	1.03 ± 0.04
TCGGAAAGGG	0.9961 ± 0.0049
TCGGAAGATT	1.01 ± 0.034
TCGGAAGGAC	1.141 ± 0.011
TCGGAAGGGC	1.017 ± 0.0027
TCGGAAGTCA	1.012 ± 0.0042
TCGGAATTTT	1.03 ± 0.026
TCGGACAGGC	1.03 ± 0.035
TCGGACGTAC	1.98 ± 0.16
TCGGACTTTT	1.04 ± 0.012
TCGGAGGGGC	1.03 ± 0.013
TCGGAGTCTG	1.04 ± 0.056
TCGGATGTGG	1.01 ± 0.056
TCGGATTATG	0.9669 ± 0.0066
TCGGCAAGTT	1.2 ± 0.33
TCGGCACGGA	0.999 ± 0.031

Sequence	switch fluorescence ratio
TCGGCCAGTT	1.01 ± 0.037
TCGGCGGGAG	1.01 ± 0.042
TCGGCGGGGA	1.05 ± 0.14
TCGGCGTCAG	0.9817 ± 0.0041
TCGGCTGCGT	1.03 ± 0.018
TCGGCTGTTG	1 ± 0.028
TCGGCTTTTT	0.999 ± 0.025
TCGGGAAAAA	0.991 ± 0.032
TCGGGAATCG	0.983 ± 0.027
TCGGGAGGGT	1.02 ± 0.023
TCGGGATAAG	1.01 ± 0.018
TCGGGATAGT	1.03 ± 0.039
TCGGGCAACG	1 ± 0.041
TCGGGCCAGG	1.1 ± 0.071
TCGGGCTCGC	0.9639 ± 0.0068
TCGGGCTGGT	0.977 ± 0.011
TCGGGGAAAG	1.04 ± 0.082
TCGGGGAAGT	1.04 ± 0.042
TCGGGGAATA	1.02 ± 0.014
TCGGGGACGT	1.062 ± 0.0057
TCGGGGATCA	0.9752 ± 0.0058
TCGGGGCGAG	1.02 ± 0.023
TCGGGGCGTG	1 ± 0.027
TCGGGGCTGT	0.993 ± 0.026
TCGGGGGGA	1.03 ± 0.034
TCGGGGGGGG	1 ± 0.036

Sequence	switch fluorescence ratio
TCGGGGGTAG	0.985 ± 0.014
TCGGGGGTGC	1.04 ± 0.033
TCGGGGTCTT	0.9941 ± 0.0029
TCGGGGTGGG	1.03 ± 0.043
TCGGGGTGTA	1 ± 0.011
TCGGGTCGCC	1 ± 0.044
TCGGGTCGGG	1 ± 0.021
TCGGGTGCGA	1.04 ± 0.011
TCGGGTTAGG	0.998 ± 0.032
TCGGGTTAGT	1.005 ± 0.0081
TCGGGTTCAG	1 ± 0.034
TCGGGTTGAG	1.01 ± 0.067
TCGGGTTTGT	1.01 ± 0.011
TCGGGTTTTC	1 ± 0.039
TCGGTAATC	1.15 ± 0.0017
TCGGTATGAA	1.01 ± 0.018
TCGGTATTTG	0.967 ± 0.037
TCGGTATTTT	1.01 ± 0.026
TCGGTCCCGG	1 ± 0.065
TCGGTCCCTT	0.988 ± 0.035
TCGGTCGGGC	1.01 ± 0.013
TCGGTCGTTT	0.976 ± 0.015
TCGGTGAGAG	1.03 ± 0.019
TCGGTGAGGT	0.9988 ± 0.0027
TCGGTGGGAG	0.981 ± 0.048
TCGGTGTCCG	1.03 ± 0.055

Sequence	switch fluorescence ratio
TCGGTGTTTT	1.05 ± 0.055
TCGGTTGAGA	1.01 ± 0.021
TCGGTTGGGT	0.984 ± 0.038
TCGGTTGGTA	1 ± 0.042
TCGGTTGGTT	0.967 ± 0.023
TCGGTTGTCT	1.02 ± 0.052
TCGGTTTATG	0.994 ± 0.023
TCGGTTTCG	0.989 ± 0.095
TCGGTTTTGC	0.982 ± 0.028
TCGTAAAAA	1.07 ± 0.13
TCGTACCTTG	1.01 ± 0.025
TCGTAGATGT	1 ± 0.026
TCGTAGGGGA	1.03 ± 0.025
TCGTAGGGGG	0.979 ± 0.072
TCGTATTACA	1.011 ± 0.0035
TCGTATTCGG	0.992 ± 0.025
TCGTATTGAG	0.9482 ± 0.0077
TCGTCAGGTG	2.48 ± 0.084
TCGTCATGTT	0.999 ± 0.015
TCGTCCAAGT	1.07 ± 0.066
TCGTCCCTGT	1.074 ± 0.003
TCGTCCGGTA	1.29 ± 0.04
TCGTCTTATA	0.991 ± 0.014
TCGTGAAGGG	0.979 ± 0.051
TCGTGACGAA	1.03 ± 0.02
TCGTGAGGCT	0.989 ± 0.036

Sequence	switch fluorescence ratio
TCGTGCAAGT	1.05 ± 0.063
TCGTGCCAGG	1.032 ± 0.01
TCGTGGCATA	1.11 ± 0.044
TCGTGGGAAA	2.11 ± 1.5
TCGTGTACTA	1.02 ± 0.035
TCGTTAATTA	1.06 ± 0.026
TCGTTAATTT	1.014 ± 0.0029
TCGTTACAGG	1.045 ± 0.0051
TCGTTACCCT	1.02 ± 0.011
TCGTTACGGG	1.17 ± 0.26
TCGTTAGAGG	0.9718 ± 0.0073
TCGTTATTCT	1.04 ± 0.067
TCGTTCGCTA	3.15 ± 0.39
TCGTTCTGAA	0.974 ± 0.022
TCGTTGCGAG	0.9898 ± 0.0096
TCGTTGGGAC	0.979 ± 0.021
TCGTTGGTCC	1.026 ± 0.0048
TCGTTGGTTG	1.02 ± 0.051
TCGTTTACAC	1.01 ± 0.033
TCGTTTACGC	1.02 ± 0.08
TCGTTTAGTG	0.981 ± 0.018
TCGTTTATTT	1.02 ± 0.014
TCGTTTCGCA	1.11 ± 0.023
TCGTTTGGAA	1 ± 0.025
TCGTTTGGGC	1.02 ± 0.019
TCGTTTGGTG	0.986 ± 0.045

Sequence	switch fluorescence ratio
TCGTTTTAGC	1.004 ± 0.0032
TCTAAAAGTG	0.9752 ± 0.0022
TCTAAAATTA	1.007 ± 0.0046
TCTAAATGTT	0.985 ± 0.03
TCTAAGTCGG	0.987 ± 0.015
TCTAAGTCTT	0.98 ± 0.042
TCTACGAAGG	1.034 ± 0.0012
TCTACGGGGG	1.032 ± 0.0024
TCTAGACGTC	0.9972 ± 0.0081
TCTAGGATGG	0.962 ± 0.023
TCTAGGGTGC	1.13 ± 0.042
TCTATAAGGT	0.99 ± 0.022
TCTATAGTAA	1.057 ± 0.0087
TCTATCCCAG	1.13 ± 0.092
TCTATCTAGA	0.988 ± 0.014
TCTATGAGGG	1.01 ± 0.023
TCTATGCTTA	1.01 ± 0.038
TCTATTCTCC	1.52 ± 0.72
TCTCAAGTGG	0.992 ± 0.031
TCTCAGCAAA	3.38 ± 0.53
TCTCAGTCAC	1.08 ± 0.018
TCTCATGGAG	1 ± 0.012
TCTCCATTTA	1.04 ± 0.015
